Experimental findings from patent US20150126710A1 (APOGENIX, published 2015) are described below.

Experiment [1] addresses T1, TRAIL-Receptor 1-Fc (UniProt O00220 109-239, limits assumed).
T1 construct: Bought from R&D Systems; also called TRAILR1; not shown: Fc part of the bought fusion protein
Briefly: Streptactin-ELISA, supernatant immobilized, constant concentration of TRAIL-Receptor 1-Fc (FIG. 14A). The protocol:
(§1) To determine the binding of receptors to constructed ligands, streptactin-coated 96-well microplates were used. Therefore, supernatants from transiently transfected HEK293 cells, mouse sera or purified proteins were immobilized on streptactin-plates (IBA GmbH) for 1-3 hours in PBS. Samples were diluted in ELISA binding/blocking buffer (PBS, 0.1% Tween-20, 20% SuperBlock T20-PBS (Pierce)). Plates were washed with PBS+0.1% Tween-20 and incubated with mouse-anti-TRAIL antibody (Pharmingen, clone RIK-2), TRAIL-Receptor 1-Fc (R&D Systems), TRAIL-Receptor 2-Fc (R&D Systems), TACI-Fc (R&D Systems) or HVEM-Fc (R&D Systems) for one hour at room temperature. Plates were again washed and Fc-proteins were detected with anti-human- or anti-mouse-Fc-specific peroxidase-conjugated antibodies (Sigma). Colour reaction was done by addition of 100 μl per well of TMB substrate (Kem-En-Tec Diagnostics) and the absorbance at 450 nm and 630 nm was determined with an ELISA reader after addition of 25 μl of 25% H₂SO₄ as stop-solution. Values were calculated as 450 nm-630 nm with MS Excel.
The selectivity of TRAIL-Receptor 1 or TRAIL-Receptor 2 towards fusion proteins of SPD/ccSPD and TRAIL, TRAILR1 mut and TRAILR2mut was shown by Streptactin-ELISA. Therefore, TRAIL-SPD-fusion proteins in supernatants from transiently transfected HEK293 cells were immobilized on Streptactin coated microplates. Cell supernatant from untransfected cells served as negative control. Specifically bound proteins were detected with constant (A, B) or varying (C, D) concentrations of either TRAIL-Receptor 1-Fc or TRAIL-Receptor 2-Fc. As shown in (A), the ligand TRAILR1 mut fused to SPD variants is deteced by TRAIL-Receptor 1, whereas the ligand TRAILR2mut is not. As shown in (B), the ligand TRAILR2mut is preferentially detected by TRAIL-Receptor 2, whereas TRAILR1 mut- and TRAIL wild-type constructs are equally well detected. As shown in C, TRAIL-Receptor 1-Fc bound to TRAIL-R1mut-ASPD and TRAIL-ASPD equally well over the whole receptor titration range, whereas TRAIL-R2mut-ASPD is not detected. As shown in D, TRAIL-Receptor 2-Fc bound to TRAIL-R2mut-ASPD and TRAIL-ASPD equally well over the receptor titration range analyzed, whereas the signal for TRAIL-R1mut-ASPD decreased rapidely with decreasing concentrations of receptor.
For orientation: ELISA stands for enzyme-linked immunosorbent assay.

In experiment [2] the target is T1, TRAIL-Receptor 1-Fc. In words: Streptactin-ELISA, LIGHT-ASPD immobilized via Strep-tag II. The procedure: as §1
Varying concentrations (0-10 microgram/ml) of affinity and SEC purified, trimeric LIGHT-ASPD were used for immobilized via the Strep-tag II on Streptactin-coated microplates. LIGHT-ASPD was then detected in a ELISA set-up using 100 ng/ml of Fc-fusion proteins of the receptors HVEM and TRAIL-Receptor 1, respectively. […]

T1 sequence (O00220 109-239 limits assumed): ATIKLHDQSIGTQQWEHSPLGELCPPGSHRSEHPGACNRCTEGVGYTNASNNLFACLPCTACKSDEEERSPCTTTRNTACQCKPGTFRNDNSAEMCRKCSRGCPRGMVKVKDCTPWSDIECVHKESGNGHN

B1: TRAILR2mut-ASPD (ligand)
chain: QRVAAHITGTRGRSNTLSSPNSKNEKALGRKINSWESSRSGHSFLSNLHLRNGELVIHEKGFYYIYSQTQFKFREEIKENTKNDKQMVQYIYKYTSYPDPILLMKSARNSCWSKDAEYGLYSIYQGGIFELKENDRIFVSVTNERLLQMDHEASFFGAFLVGSSGSSGSSGSGLPDVASLRQQVEALQGQVQHLQAAFSQYKKVELFPNGQSVGEKIFKTAGFVKPFTEAQLLCTQAGGQLASPRSAAENAALQQLVVAKNEAAFLSMTDSKTEGKFTYPTGESLVYSNWAPGEPNDDGGSEDCVEIFTNGKWNDRACGEKRLVVCEFGGSPSSSSSSAWSHPQFEK
notes: TRAIL-Receptor 2 selective mutein of the human TRAIL-RBD, A-linker, neck + CRD of human SP-D, linker element and Strep-tag II; Signal peptide 1-20 left out; Homotrimer by SEC; also called Sp-TRAILR2mut-ASPD
With B1, the binding result in the experiment with TRAIL-Receptor 1-Fc [1] was “no binding”.

B2: LIGHT-ASPD (ligand)
chain: EVNPAAHLTGANSSLTGSGGPLLWETQLGLAFLRGLSYHDGALVVTKAGYYYIYSKVQLGGVGCPLGLASTITHGLYKRTPRYPEELELLVSQQSPCGRATSSSRVWWDSSFLGGVVHLEAGEEVVVRVLDERLVRLRDGTRSYFGAFMVGSSGSSGSSGSGLPDVASLRQQVEALQGQVQHLQAAFSQYKKVELFPNGQSVGEKIFKTAGFVKPFTEAQLLCTQAGGQLASPRSAAENAALQQLVVAKNEAAFLSMTDSKTEGKFTYPTGESLVYSNWAPGEPNDDGGSEDCVEIFTNGKWNDRACGEKRLVVCEFGGSPSSSSSSAWSHPQFEK
notes: Human LIGHT-RBD (Glu91-Val240), A-linker, neck + CRD of human SP-D, linker element and Strep-tag II; Signal peptide 1-20 left out; Trimer by SEC, glycosylated; also called Sp-LIGHT-ASPD
Turning to B2, the binding result with TRAIL-Receptor 1-Fc [2] was “no binding”.

B3: TRAILR2mut-D-SPD (ligand)
chain: QRVAAHITGTRGRSNTLSSPNSKNEKALGRKINSWESSRSGHSFLSNLHLRNGELVIHEKGFYYIYSQTQFKFREEIKENTKNDKQMVQYIYKYTSYPDPILLMKSARNSCWSKDAEYGLYSIYQGGIFELKENDRIFVSVTNERLLQMDHEASFFGAFLVGSGLPDVASLRQQVEALQGQVQHLQAAFSQYKKVELFPNGQSVGEKIFKTAGFVKPFTEAQLLCTQAGGQLASPRSAAENAALQQLVVAKNEAAFLSMTDSKTEGKFTYPTGESLVYSNWAPGEPNDDGGSEDCVEIFTNGKWNDRACGEKRLVVCEFGGSPSSSSSSAWSHPQFEK
notes: Used as HEK293 supernatant
Take B3: the binding result with TRAIL-Receptor 1-Fc [1] is “no binding”.

B4: TRAILR2mut-A-CCSPD (ligand)
chain: QRVAAHITGTRGRSNTLSSPNSKNEKALGRKINSWESSRSGHSFLSNLHLRNGELVIHEKGFYYIYSQTQFKFREEIKENTKNDKQMVQYIYKYTSYPDPILLMKSARNSCWSKDAEYGLYSIYQGGIFELKENDRIFVSVTNERLLQMDHEASFFGAFLVGSSGSSGSSGSGLPDVASLRQQVEALQGQVQHLQAAFSQYKKVELFPNGPSSSSSSAWSHPQFEK
notes: Used as HEK293 supernatant
Consider B4, for which the binding result with TRAIL-Receptor 1-Fc [1] is given as “no binding”.

B5: TRAILR2mut-D-CCSPD (ligand)
chain: QRVAAHITGTRGRSNTLSSPNSKNEKALGRKINSWESSRSGHSFLSNLHLRNGELVIHEKGFYYIYSQTQFKFREEIKENTKNDKQMVQYIYKYTSYPDPILLMKSARNSCWSKDAEYGLYSIYQGGIFELKENDRIFVSVTNERLLQMDHEASFFGAFLVGSGLPDVASLRQQVEALQGQVQHLQAAFSQYKKVELFPNGPSSSSSSAWSHPQFEK
notes: Used as HEK293 supernatant
As for B5, in the experiment with TRAIL-Receptor 1-Fc [1], the binding result is “no binding”.
